In US20260022352A1, “COMPOSITIONS AND METHODS FOR PURIFYING […]” (North Carolina State University, priority 2023, published 2026) one finds capacity and LVV adsorbed data, which are given here for two sequences.

Some results are limits rather than exact numbers.

For this test, the target named is VSV-G-pseudo-typed lentiviral vector particles (vesicular stomatitis virus) (UniProt P03522).
UniProt P03522, sequence (P03522 17-511): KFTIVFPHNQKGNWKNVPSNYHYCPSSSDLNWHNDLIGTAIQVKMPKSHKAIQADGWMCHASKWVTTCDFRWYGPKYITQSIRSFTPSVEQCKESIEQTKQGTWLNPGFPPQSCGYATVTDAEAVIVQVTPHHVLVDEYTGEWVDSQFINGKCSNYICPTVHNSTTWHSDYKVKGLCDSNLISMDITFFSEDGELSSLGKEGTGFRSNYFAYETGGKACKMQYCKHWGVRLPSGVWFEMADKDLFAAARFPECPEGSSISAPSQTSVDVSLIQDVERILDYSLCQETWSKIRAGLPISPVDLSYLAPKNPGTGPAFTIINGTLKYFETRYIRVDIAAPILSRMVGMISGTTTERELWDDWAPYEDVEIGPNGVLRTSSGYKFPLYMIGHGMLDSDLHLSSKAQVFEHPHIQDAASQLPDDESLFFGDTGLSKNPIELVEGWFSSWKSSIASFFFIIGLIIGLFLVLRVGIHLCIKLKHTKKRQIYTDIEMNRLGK

For FEKISAAE (peptide), the capacity turned out to be 5e+08 TU/mL.

GKEAAFAA (peptide) gave an LVV adsorbed above 1e+09 TU/mL.
